The values that follow come from the supplement of paper PMC10567573.

Sequences and labels used below:
B1: ELF3 (parent)
chain: RLVYKFGKNSSGWKEEEVLQSRN
B2: TRIM55 (parent)
chain: YLPTRGGTTMASGGRFRCPSCRHE
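Also: lentivirally expressed fusions sorted by FACS into six bins by GFP to DsRed ratio, PSI derived from sequencing read proportions per bin multiplied by bin number.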

In the first series the parent is B1. Description: protein stability index of a GFP-peptide fusion (GPS, HEK-293T) (PSI 1-6); higher = more stable. The following applies: c terminus: native.
RLVYKFGKNSSGWKEEEVLKSRN [Q20K]: the protein stability index was found to be 1.25.
Take RLVYKFGKNSSGWKEEEVLDSRN [Q20D]: the protein stability index came to 3.28.
For RLVYKFGKNSSGWKEEEVLGSRN [Q20G], the protein stability index amounted to 3.4.
Still for that read-out and setting: to RLVYKFGKNSSGWKEEEVLSSRN [Q20S] belongs 2.4; to RLVYKFGKNSSGWKEEEVLPSRN [Q20P], 2.38; to RLVYKFGKNSSGWKEEEVLVSRN [Q20V], 1.71.
RLVYKFGKNSSGWKEEEVLNSRN [Q20N]: the protein stability index was determined as 3.32.
On to RLVYKFGKNSSGWKEEEVLYSRN [Q20Y], for which the protein stability index amounted to 1.79.
Consider RLVYKFGKNSSGWKEEEVLISRN [Q20I], for which the protein stability index was determined as 1.71.
On to RLVYKFGKNSSGWKEEEVLHSRN [Q20H], for which the protein stability index is 1.76.
As for RLVYKFGKNSSGWKEEEVLASRN [Q20A], the protein stability index was 1.89.
In the case of RLVYKFGKNSSGWKEEEVLWSRN [Q20W], the protein stability index is 1.67.
Regarding RLVYKFGKNSSGWKEEEVLCSRN [Q20C], the protein stability index was found to be 2.22.
Same read-out and setting: to RLVYKFGKNSSGWKEEEVLTSRN [Q20T] belongs 1.58.
As to RLVYKFGKNSSGWKEEEVLMSRN [Q20M], the protein stability index is 2.06.
On the same count and under the same terms, to RLVYKFGKNSSGWKEEEVLESRN [Q20E] belongs 3.52.
As to RLVYKFGKNSSGWKEEEVLLSRN [Q20L], the protein stability index was 2.19.
Turning to RLVYKFGKNSSGWKEEEVTQSRN [L19T], the protein stability index was found to be 3.84.
As to RLVYKFGKNSSGWKEEEVQQSRN [L19Q], the protein stability index is 3.85.
RLVYKFGKNSSGWKEEEVYQSRN [L19Y]: the protein stability index is 1.52.
For the variant RLVYKFGKNSSGWKEEEVPQSRN [L19P], the protein stability index was 3.12.
Turning to RLVYKFGKNSSGWKEEEVVQSRN [L19V], the protein stability index came out at 2.55.
In the case of RLVYKFGKNSSGWKEEEVRQSRN [L19R], the protein stability index amounted to 2.51.
Consider RLVYKFGKNSSGWKEEEVLQARN [S21A], for which the protein stability index was found to be 2.12.
Consider RLVYKFGKNSSGWKEEEVLQNRN [S21N], for which the protein stability index was 2.49.
Consider RLVYKFGKNSSGWKEEEVLQIRN [S21I], for which the protein stability index worked out at 2.41.
With RLVYKFGKNSSGWKEEEVLQDRN [S21D], the protein stability index amounted to 3.56.
With RLVYKFGKNSSGWKEEEVLQGRN [S21G], the protein stability index turned out to be 2.26.
Same read-out and setting: to RLVYKFGKNSSGWKEEEVLQLRN [S21L] belongs 3.31; to RLVYKFGKNSSGWKEEEVLQYRN [S21Y], 2.72; to RLVYKFGKNSSGWKEEEVLQFRN [S21F], 1.94.
Take RLVYKFGKNSSGWKEEEVLQQRN [S21Q]: the protein stability index amounted to 3.82.
For RLVYKFGKNSSGWKEEEVLQPRN [S21P], the protein stability index worked out at 3.39.
On to RLVYKFGKNSSGWKEEEVLQERN [S21E], for which the protein stability index turned out to be 3.19.
Turning to RLVYKFGKNSSGWKEEEVLQCRN [S21C], the protein stability index was found to be 2.39.
RLVYKFGKNSSGWKEEEVLQKRN [S21K]: the protein stability index is 2.95.
As for RLVYKFGKNSSGWKEEEVLQVRN [S21V], the protein stability index was found to be 1.82.
Still for that read-out and setting: the result for RLVYKFGKNSSGWKEEEVLQTRN [S21T] reads 2.1; that for RLVYKFGKNSSGWKEEEVLQMRN [S21M], 2.31; that for RLVYKFGKNSSGWKEEEVLQSYN [R22Y], 2.06.
Consider RLVYKFGKNSSGWKEEEVLQSCN [R22C], for which the protein stability index worked out at 2.35.
With RLVYKFGKNSSGWKEEEVLQSAN [R22A], the protein stability index is 2.85.
Take RLVYKFGKNSSGWKEEEVLQSPN [R22P]: the protein stability index was determined as 3.62.
Consider RLVYKFGKNSSGWKEEEVLQSQN [R22Q], for which the protein stability index is 3.02.
On to RLVYKFGKNSSGWKEEEVLQSFN [R22F], for which the protein stability index came out at 3.01.
Same read-out and setting: to RLVYKFGKNSSGWKEEEVLQSNN [R22N] belongs 3.96.
As for RLVYKFGKNSSGWKEEEVLQSHN [R22H], the protein stability index stood at 3.53.
On to RLVYKFGKNSSGWKEEEVLQSSN [R22S], for which the protein stability index turned out to be 2.92.
In the case of RLVYKFGKNSSGWKEEEVLQSDN [R22D], the protein stability index was 4.7.
Same read-out and setting: to RLVYKFGKNSSGWKEEEVLQSMN [R22M] belongs 2.72; to RLVYKFGKNSSGWKEEEVLQSKN [R22K], 3.75; to RLVYKFGKNSSGWKEEEVLQSLN [R22L], 2.56.
RLVYKFGKNSSGWKEEEVLQSIN [R22I]: the protein stability index is 3.42.
In the case of RLVYKFGKNSSGWKEEEVLQSTN [R22T], the protein stability index is 3.51.
With RLVYKFGKNSSGWKEEEVLQSRC [N23C], the protein stability index amounted to 1.7.
RLVYKFGKNSSGWKEEEVLQSRS [N23S]: the protein stability index came out at 2.51.
For RLVYKFGKNSSGWKEEEVLQSRW [N23W], the protein stability index was 2.13.
On the same count and under the same terms, the result for RLVYKFGKNSSGWKEEEVLQSRK [N23K] reads 3.52; that for RLVYKFGKNSSGWKEEEVLQSRV [N23V], 2.62.
On to RLVYKFGKNSSGWKEEEVLQSRI [N23I], for which the protein stability index worked out at 1.8.
Still for that read-out and setting: the result for RLVYKFGKNSSGWKEEEVLQSRE [N23E] reads 3.68; that for RLVYKFGKNSSGWKEEEVLQSRG [N23G], 2; that for RLVYKFGKNSSGWKEEEVLQSRF [N23F], 2.86.
On the same count and under the same terms, to RLVYKFGKNSSGWKEEEVLQSRL [N23L] belongs 3.28.
For RLVYKFGKNSSGWKEEEVLQSRM [N23M], the protein stability index worked out at 1.81.
RLVYKFGKNSSGWKEEEVLQSRQ [N23Q]: the protein stability index is 1.87.
Still for that read-out and setting: the result for RLVYKFGKNSSGWKEEEVLQSRA [N23A] reads 2.28; that for RLVYKFGKNSSGWKEEEVLQSRD [N23D], 2.7.
For the variant RLVYKFGKNSSGWKEEEVLQSRY [N23Y], the protein stability index stood at 2.31.
In the case of RLVYKFGKNSSGWKEEEVLQSRP [N23P], the protein stability index came out at 3.22.
As to RLVYKFGKNSSGWKEEEVLQSRT [N23T], the protein stability index was found to be 2.37.

Variants of B2 are the subject of another series. Described as above. The note with it: c terminus: a fixed tail appended.
On to YLPTRGGTTMASGGRFRPPSCRHE [C18P], for which the protein stability index turned out to be 3.56.
YLPTRGGTTMASGGRFRYPSCRHE [C18Y]: the protein stability index was determined as 2.44.
On the same count and under the same terms, to YLPTRGGTTMASGGRFRFPSCRHE [C18F] belongs 2.43.
YLPTRGGTTMASGGRFRHPSCRHE [C18H]: the protein stability index is 2.94.
In the case of YLPTRGGTTMASGGRFRKPSCRHE [C18K], the protein stability index was 3.34.
With YLPTRGGTTMASGGRFRMPSCRHE [C18M], the protein stability index came out at 2.4.
The same measure, in the same setting: the result for DLPTRGGTTMASGGRFRCPSCRHE [Y1D] reads 2.15; that for FLPTRGGTTMASGGRFRCPSCRHE [Y1F], 2.51; that for VLPTRGGTTMASGGRFRCPSCRHE [Y1V], 1.89.
On to ALPTRGGTTMASGGRFRCPSCRHE [Y1A], for which the protein stability index stood at 2.59.
Regarding WLPTRGGTTMASGGRFRCPSCRHE [Y1W], the protein stability index was 2.99.
On the same count and under the same terms, to YLPTRGGTTMASGGRSRCPSCRHE [F16S] belongs 3.94; to YLPTRGGTTMASGGRMRCPSCRHE [F16M], 1.74; to YLPTRGGTTMASGGRYRCPSCRHE [F16Y], 1.57.
As for YLPTRGGTTMASGGRNRCPSCRHE [F16N], the protein stability index worked out at 2.33.
Consider YLPTRGGTTMASGGRARCPSCRHE [F16A], for which the protein stability index came out at 3.43.
Take YLPTRGGTTMASGGRVRCPSCRHE [F16V]: the protein stability index is 2.71.
Still for that read-out and setting: the result for YLPTRGGTTMASGGRFHCPSCRHE [R17H] reads 2.56; that for YLPTRGGTTMASGGRFNCPSCRHE [R17N], 2.24.
On to YLPTRGGTTMASGGRFSCPSCRHE [R17S], for which the protein stability index turned out to be 2.9.
On to YLPTRGGTTMASGGRFKCPSCRHE [R17K], for which the protein stability index came out at 1.48.
Consider YLPTRGGTTMASGGRFICPSCRHE [R17I], for which the protein stability index stood at 1.69.
In the case of YLPTRGGTTMASGGRFRCPSCRKE [H23K], the protein stability index was 3.39.
Regarding YLPTRGGTTMASGGRFRCPSCRME [H23M], the protein stability index was 1.52.
